This note sets out measurements from patent US20230053131A1 (INTERVET, published 2023).

The target of this assay is T1, canine IL-4 receptor alpha on DH82 cells (canine).
T1 construct: Endogenous receptor of the canine DH82 cell line in the STAT-6 assay; also called canine IL-4Rα; IL-4R alpha
T1 chain: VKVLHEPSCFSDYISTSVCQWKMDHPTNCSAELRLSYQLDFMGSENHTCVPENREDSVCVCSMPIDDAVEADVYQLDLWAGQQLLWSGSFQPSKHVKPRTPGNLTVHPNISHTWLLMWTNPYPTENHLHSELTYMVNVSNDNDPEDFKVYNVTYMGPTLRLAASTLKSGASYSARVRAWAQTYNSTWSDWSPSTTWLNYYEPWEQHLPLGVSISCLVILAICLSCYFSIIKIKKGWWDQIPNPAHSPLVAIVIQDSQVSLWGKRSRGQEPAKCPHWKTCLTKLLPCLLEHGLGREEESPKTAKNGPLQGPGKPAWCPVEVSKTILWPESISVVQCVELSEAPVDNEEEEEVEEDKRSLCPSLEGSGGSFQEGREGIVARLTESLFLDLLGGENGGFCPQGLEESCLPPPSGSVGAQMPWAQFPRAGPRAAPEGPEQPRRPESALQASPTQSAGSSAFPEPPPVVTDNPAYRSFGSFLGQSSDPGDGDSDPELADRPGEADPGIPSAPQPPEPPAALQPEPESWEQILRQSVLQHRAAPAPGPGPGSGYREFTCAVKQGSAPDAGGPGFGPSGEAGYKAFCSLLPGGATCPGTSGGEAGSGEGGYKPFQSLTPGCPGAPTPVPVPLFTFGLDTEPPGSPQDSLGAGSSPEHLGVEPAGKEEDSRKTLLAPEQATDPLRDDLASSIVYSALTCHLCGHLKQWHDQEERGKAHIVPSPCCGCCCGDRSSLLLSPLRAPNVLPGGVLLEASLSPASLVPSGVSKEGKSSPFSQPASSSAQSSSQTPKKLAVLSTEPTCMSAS
Briefly: inferred by the filing from inhibition of STAT-6 phosphorylation in DH82 cells. As for the experimental part: Methods [0121] 1. Two tissue culture plates were seeded with 8×10⁴ DH82 cells per well (200 μL with the density of 4×10⁵ cells/mL) and incubated at 37° C. overnight. [0122] 2. The test antibodies were pre-diluted to 500 μg/mL and then 3-fold serially diluted in DH82 Cell Growth Media. The media was removed from the cell culture plates and 50 μL/well of the serially diluted test sample were transferred to each plate. [0123] 3. Canine IL-4 was diluted to 5 ng/mL in DH82 Cell Growth Media and 50 μL was added to each well of one plate. Canine IL-13 was diluted to 10 ng/mL in DH82 Cell Growth Media and 50 μL was added to each well of the second plate. The plates were incubated for 15 min at 37° C. [0124] 4. The media was removed from the plates and 100 μL per well of freshly prepared 1× lysis buffer from the AlphaLISA p-STAT-6 Assay Kit was added to the plate. The plate was agitated on a plate shaker with 350 rpm for 10 minutes at room temperature. [0125] 5. The Acceptor Mix was prepared from the AlphaLISA p-STAT6 Assay Kit and […] was added to 30 μL of the cell lysate in 96-well 1/2 Area Plates. The plates were sealed, agitated for 2 minutes at 350 rpm, and then incubated for 2 hours at room temperature. [0126] 6. […] The plates were read using the AlphaScreen settings on the Perkin Elmer EnVison.

B1: c146E2VL3-cCLk-s/c146E2VH3-cIgG-Bm (antibody, V domains shown)
VH: EVQLVQSGAEVKKPGASVKVSCKASGYTFARYWMHWMKQAPGAGLDWIGMIHPDSGNINYNERFKTKATLTVDKSTSTAYMELSSLRAGDIAVYYCARQLRNAMDYWGQGTLVTVSS
VL: DIVLTQTPLSLSVSPGETASIYCRASESVDSYGNSFLNWYQQKPGQPPKLLIYRASNLASEIPDRFSGSGSRTEFTLKISRVEADDAGVYYCQQNYENPRTFGQGTKLEIKR
notes: Caninized murine anti-canine IL-4R alpha antibody, canine IgG-Bm heavy chain and canine kappa light chain; also called c146E2-H3L3
As for B1, the binding result is given as “binds”.
